Biological target: T1, wild-type HMPV F protein (soluble, secreted, with C-terminal GCNt trimerization domain) (human metapneumovirus, B2 strain)
T1 construct: fusion (F) glycoprotein of human metapneumovirus, B2 strain; soluble secreted form, GCNt joined in-frame with the heptad repeat of the C-terminal HRB; Preparations are mixtures of pre- and post-fusion forms; heating to 50°C for 30 min converts them to the post-fusion form (written as assays of their own); The trimer may rest in part on the GCNt domain; also called wt HMPV F; MPV F-GCNt; not …
Experiment: SPR; BiOptix 404pi; F proteins captured on NiHC1000m chip through their C-terminal His tag to 120 RU; Fab injected at 300 to 0.14 nM, 100 ul/min; 10 mM HEPES pH 7.2, 150 mM NaCl, 0.005% Tween 20, 50 uM EDTA; simple Langmuir model
Conditions: both partners purified

B1: motavizumab Fab (affinity-matured variant of palivizumab, anti-RSV F site II/A) (Fab, V domains shown)
VH: QVTLRESGPALVKPTQTLTLTCTFSGFSLSTAGMSVGWIRQPPGKALEWLADIWWDDKKHYNPSLKDRLTISKDTSKNQVVLKVTNMDPADTATYYCARDMIFNFYFDVWGQGTTVTVSS
VL: DIQMTQSPSTLSASVGDRVTITCSASSRVGYMHWYQQKPGKAPKLLIYDTSKLASGVPSRFSGSGSGTEFTLTISSLQPDDFATYYCFQGSGYPFTFGGGTKVEIK
notes: heavy chain of the Fab in the motavizumab:RSV peptide complex PDB 3IXT; light chain of the Fab in the motavizumab:RSV peptide complex PDB 3IXT; Variable genes cloned into pEE6.4 (heavy) and pEE12.4 (light) vectors (Lonza); constant parts of the Fab construct are not described; source: FreeStyle 293-F cells, co-transfected (PEI), purified from supernatant (protein G column)
binding result: no binding

From paper PMC4880302, “A Chimeric Pneumovirus Fusion Protein Carrying Neutralizing Epitopes of Both MPV and RSV” (PLoS ONE, 2016)
